Results published in patent US6482410B1, “Cytotactin derivatives that stimulate attachment and neurite outgrowth, and methods of making same” (The Scripps Research Institute, priority 1994, dated 2002).
Several values for one entry are separate records, joined by “and”; a condition that tells them apart may be missing. Equal values may be shown once. Entries after “also recorded” stand apart in the source; their conditions may differ.

B1: CTfn6: CT:GST fusion protein, fibronectin type III repeat VI, residues 1318-1398 of SEQ ID NO 4 (protein)
chain: VVGSPKGISFSDITENSARVSWTPPRSRVDSYRVSYVPITGGTPNVVTVDGSKTRTKLVKLVPGVDYNVNIISVKGFEESE
modifications: left off: a dimerising Fc or GST
B2: CTfg: CT:GST fusion protein, entire fibrinogen domain, residues 1570-1810 of SEQ ID NO 4 (protein)
chain: SMRSKMIQTVFTTTGLLYPYPKDCSQALLNGEVTSGLYTIYLNGDRTQPLQVFCDMAEDGGGWIVFLRRQNGKEDFYRNWKNYVAGFGDPKDEFWIGLENLHKISSQGQYELRVDLRDRGETAYAVYDKFSVGDAKTRYRLRVDGYSGTAGDSMTYHNGRSFSTFDKDNDSAITNCALSYKGAFWYKNCHRVNLMGRYGDNNHSQGVNWFHWKGHEYSIQFAEMKLRPSSFRNLEGRRKRA
modifications: left off: a dimerising Fc or GST
B3: CTfn3: CT:GST fusion protein, fibronectin type III repeat III, residues 774-864 of SEQ ID NO 4 (protein)
chain: LDAPSQIEAKDVTDTTALITWSKPLAEIEGIELTYGPKDVPGDRTTIDLSEDENQYSIGNLRPHTEYEYEVTLISRRGDMESDPAKEVFVT
modifications: left off: a dimerising Fc or GST

Columns and labels:
[1] = tested on: dorsal root ganglia (DRG) cells; assay: Cell attachment assay, DRG neurons on protein-coated solid support; format: cell-based, chicken; conditions: short-term attachment assay
Procedure: (§1) Dorsal root ganglia (DRG) cells or forebrain neurons were prepared for the cell attachment assays as follows. DRG from day 6 chicken embryos or forebrains from day 7 chicken embryos were dissected into HBSS. The tissue was pelleted by centrifugation and resuspended in CMF-HBSS and incubated at 37° C. for 10 minutes. The tissue was pelleted again and resuspended in CMF-HBSS containing 0.08% trypsin and allowed to trypsinize for 20 minutes at 37° C. An equal volume of DMEM/F12, 10% FCS, 20 ng/ml nerve growth factor (NGF) (for DRG cells only), 10 μg/ml gentamycin (10% medium) was added, and the tissue was pelleted and resuspended in 2 ml of the 10% medium. The cells were triturated with a fire-polished Pasteur pipette for 15 strokes, and the cells were washed and resuspended in 10 ml of 10% medium. DRG cells were plated in a 10 cm tissue culture dish and incubated for 1 hour at 37° C. in 5% CO2, to allow for attachment of contaminating fibroblasts.
After replating, the cells were harvested, pelleted and washed three times in DMEM/F12, 1% fetal calf serum (FCS), 20 ng/ml NGF (for DRG cells only), 10 μg/ml gentamycin (1% medium), and the number of cells determined using a hemocytometer. The DRG were resuspended to a density of 6×10^5 cells/ml in attachment buffer. […]
Chicken fibroblasts, DRG, and solid supports (dishes) coated with CT for use in the cell attachment assays were prepared as described in Examples 5.A.2-4, respectively. […] The number of bound cells was determined using a 10× objective with an eyepiece reticle. The number of cells was determined in four fields for each fusion protein dot as the number of cells bound per […]. […] The number of cells bound for CT was expressed as the average of the twelve measurements±standard deviation […]. […]
Cell attachment assays were performed essentially as follows. […] The cells were then washed in attachment buffer (CMF-HBSS, 10 mM Hepes, 1 mM CaCl2, 1 mM MgCl2, 0.1 mM MnCl2, 2% BSA) three times, counted in a hemocytometer, resuspended to a density of 6×10^5 cells/ml. […]

[2] = tested on: dorsal root ganglia (DRG) neurons; assay: Two-dimensional neurite outgrowth assay, DRG, 15 hours; format: cell-based, chicken; conditions: 15 hours; for neurite promoting activity on DRG cells: low density; for % Sprouting / Neurite Length: Table 4, DRG; for % Sprouting: neurites greater than one cell diameter; for Neurite Length: per neurite-bearing cell; for Percent Sprouting / Neurite Length (in microns): Table 5, DRG; for Percent Sprouting: six experiments; for Neurite Length (in microns): three experiments
Procedure: as §1
After replating, the cells were harvested, pelleted and washed three times in DMEM/F12, 1% fetal calf serum (FCS), 20 ng/ml NGF (for DRG cells only), 10 μg/ml gentamycin (1% medium), and the number of cells determined using a hemocytometer. The DRG were resuspended to a density of 6×10^5 cells/ml in attachment buffer. The neurons were resuspended to a density of 2×10^4 cells/ml in 1% medium and added to substrates and placed at 37° C., 5% CO2 for 15 hours.
After the growth period, the dishes were gently rinsed with PBS to remove unbound cells, fixed with 1% glutaraldehyde, and viewed by phase contrast microscopy. Ten to forty cells were analyzed for each substrate. Cells were judged as neurite-bearing if the length of the processes was greater than one cell diameter. All cells with neurites were photographed with a 20× objective and total neurite length per neurite-bearing cell was derived from the photographic prints. Percentage of neuronal sprouting was calculated from at least six experiments. Neurite length was calculated from at least three experiments.
This extensive neurite outgrowth after 40 hours made quantitation of the percentage of neurite-bearing cells and neurite length difficult. To analyze quantitatively the effect of CT/TN fusion proteins on DRG neurite outgrowth, DRG cells were therefore plated at low density on CT/TN or CT/TN fragments and analyzed after 15 hours in culture for the percentage of cells that sprouted neurites greater than one cell diameter and for the everage neurite length per neuron. These conditions enhanced the number of isolated cells and discouraged the cell-cell interactions and fasciculation that occurred in the long-term cultures.
The proteins used in the neurite outgrowth assays are the same as those used in the cell attachment assays. […] In addition, poly-L-lysine was adsorbed to the solid support. […] Any cells adhering to the solid support were examined for sprouting and neurite length as defined herein.
Proteins used in the neurite outgrowth assays were prepared as described in Example 5.A.2.
Dorsal root ganglia (DRG) from day 6 chicken embryos were prepared as described in Example 5.A.4. For the neurite outgrowth assays, the DRG were resuspended at a density of 2×10^4 cells/ml in 1% medium, added to solid support, and placed at 37° C. in 5% CO2 for 15 hours. After the attachment and growth period, the dishes were gently rinsed with PBS to remove unbound cells, fixed with 1% (v/v) glutaraldehyde, and viewed by phase contrast microscopy. Ten to thirty cells were analyzed for each adsorbed protein spot. Cells were judged as neurite-bearing if the length of the processes were greater than one cell diameter. All cells with neurites were photographed with a 40× objective and the total neurite length per neurite-bearing cell was derived from the prints. The percent of cells that were sprouting and the average neurite length was derived from six and three independent experiments, respectively. […]

Row | Molecule | DRG neuron attachment to coated substrate (words) [1] | DRG neuron attachment to coated substrate (words) ([1]; listed as Ctfn6) | DRG neurite length versus polylysine ([2]; DRG) | increase in number of neurite-bearing cells over polylysine ([2]; DRG) | percentage of neurite-bearing DRG cells versus polylysine ([2]; DRG) | neurite promoting activity on DRG cells ([2]; DRG) | % Sprouting [2] [%] | Neurite Length [2] [microns] | Percent Sprouting [2] | Neurite Length (in microns) [2] [microns] | average neurite length relative to poly-L-lysine ([2]; DRG) [times]
1 | B1 | able to support DRG neuron attachment; also recorded: supports both fibroblast and neuronal cell attachment | support fibroblast and neuronal cell attachment | not statistically different; also recorded: statistically indistinguishable | 82% and 57% | increase in neurite outgrowth over poly-L-lysine | did show neurite promoting activity | 31 ± 2 | 153 ± 124 | 31 ± 2 | 154 ± 124 | –
2 | B2 | able to support DRG neuron attachment; also recorded: attached well | – | not statistically different; also recorded: statistically indistinguishable | – | comparable | did show neurite promoting activity | 8 ± 3 | 82 ± 23 | 8 ± 3 | 83 ± 23 | –
3 | B3 | – | – | significantly longer | – | comparable; also recorded: the same as on poly-L-lysine | did show neurite promoting activity | 12 ± 2 | 260 ± 141 | 12 ± 2 | 260 ± 141 | 3
